Reference: PMC8893199, “A Cysteine Variant at an Allosteric Site Alters MIF Dynamics and Biological Function in Homo- and Heterotrimeric Assemblies” (Frontiers in Molecular Biosciences, 2022)

Target: the molecule itself
Assay: AUC; sedimentation velocity, Y99C MIF homotrimer at three loading concentrations, PBS, 20°C, 50,000 rpm, c(s) analysis in SEDFIT

B1: Y99C MIF homotrimer (natural protein, human, UniProt P14174 1-115, looked up)
chain: MPMFIVNTNVPRASVPDGFLSELTQQLAQATGKPPQYIAVHVVPDQLMAFGGSSEPCALCSLHSIGKIGGAQNRSYSKLLCGLLAERLRISPDRVYINYCDMNAANVGWNNSTFA
notes: untagged; Made by site-directed mutagenesis of the WT MIF cDNA in pET-11b (construct from Pantouris et al., 2018); also called Y99C variant; homotrimeric Y99C MIF; source: E. coli BL21-Gold (DE3), pET-11b, purified (Q-Sepharose and SP flow-through, Superdex 75)
In the case of B1, the “stoichiometry N” value is reported as 3.
